# Target: Myc-GPI-TSHR-ecd (TSH receptor ectodomain, residues 1-412, linked to a GPI anchor, Myc-tagged) (human) (UniProt P16473)
# Test: FRET or BRET; sensitized emission FRET on transfected HEK 293 cells fixed with 4% paraformaldehyde; anti-HA FITC (donor) and anti-Myc Cy3 (acceptor), or GFP (donor) and anti-Myc Cy3 (acceptor) for full-length receptors; pFRET software
substance,measurement,value
"HA-GPI-TSHR-ecd (TSH receptor ectodomain, residues 1-412, linked to a GPI anchor, HA-tagged) (from UniProt P16473 21-412) (domain or fragment)",FRET efficiency,8 to 10%

# Reference: paper PMC2829087
